From publication PMC10967716

Assays:
Experiment in all cases: SEC
[1] = target: α-Methylacyl-CoA racemase from Mycobacterium tuberculosis, H126A mutant (M. tuberculosis) (UniProt O06543)
[2] = target: α-Methylacyl-CoA racemase from Mycobacterium tuberculosis, E241A mutant (M. tuberculosis) (UniProt O06543)
[3] = target: α-Methylacyl-CoA racemase from Mycobacterium tuberculosis, D156A mutant (M. tuberculosis) (UniProt O06543)

Substance: α-Methylacyl-CoA racemase from Mycobacterium tuberculosis, H126A mutant (from UniProt O06543 1-360) (enzyme)
- stoichiometry N [1]: 2

Substance: α-Methylacyl-CoA racemase from Mycobacterium tuberculosis, E241A mutant (from UniProt O06543 1-360) (enzyme)
- stoichiometry N [2]: 2

Substance: α-Methylacyl-CoA racemase from Mycobacterium tuberculosis, D156A mutant (from UniProt O06543 1-360) (enzyme)
- stoichiometry N [3]: 2
